Assay results from US20100160556A1 (published 2010).
Residue numbers refer to the chain shown, from its start.

B1: PEG-CM3-ANA08 (CM3-ANA08 conjugated to unbranched 40 kDa mPEG maleimido propionamide) (peptide)
peptide: HAEGTFTSDVSSYLEGQAAKEFIAWLVKGRGRRDFPEEVAIAEELGC
modifications: unbranched 40 kDa mPEG maleimido propionamide on the free thiol group of the C-terminal cysteine
B2: CM3 (GLP-1(7-37)-IP2, murine IP2) (peptide)
peptide: HAEGTFTSDVSSYLEGQAAKEFIAWLVKGRGRRDFPEEVAIAEELG
B3: CM3-ANA01 (peptide)
peptide: B2 peptide with R32A, R33A

Biological target: GLP-1 receptor (on a GLP-1 receptor transfected CHO cell line)
Assay: cell-based or functional assay

| Binder | ED50 relative to CM3 (GLP-1 bioassay, cAMP increase) [times] | IC50 (GLP-1 bioassay, cAMP increase) [µM] |
| --- | --- | --- |
| B1 | ~5 |  |
| B2 |  | 187 |
| B3 |  | 159 |
